The source of these data is article PMC4673497.

The target in data set [1] is T1, His-FLP (FOUR LIPS, MYB124) (UniProt Q94FL6 1-436).
T1 sequence: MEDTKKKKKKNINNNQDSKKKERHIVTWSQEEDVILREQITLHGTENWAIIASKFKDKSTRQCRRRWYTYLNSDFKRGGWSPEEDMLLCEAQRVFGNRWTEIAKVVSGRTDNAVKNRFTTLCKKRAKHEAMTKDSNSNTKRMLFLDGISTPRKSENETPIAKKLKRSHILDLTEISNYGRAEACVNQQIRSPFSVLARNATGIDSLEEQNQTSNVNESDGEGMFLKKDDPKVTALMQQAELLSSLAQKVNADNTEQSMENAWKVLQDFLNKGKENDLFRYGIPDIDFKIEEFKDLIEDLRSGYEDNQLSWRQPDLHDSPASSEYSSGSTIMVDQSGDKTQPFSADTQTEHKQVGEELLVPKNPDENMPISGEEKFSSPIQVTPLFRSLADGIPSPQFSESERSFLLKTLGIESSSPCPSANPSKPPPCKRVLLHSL
The data set can be described thus: EMSA; 1x binding buffer (LightShift kit), 2.5% glycerol, 50 mM KCl, 5 mM MgCl2, 0.05% NP-40, 10 mM EDTA, room temperature, 20 min; pH not stated. In general terms: Mobility shift assays separate free from complexed probe on a gel.

The target of data set [2] is T2, His-MYB88 (UniProt F4IRB4 1-484).
T2 sequence: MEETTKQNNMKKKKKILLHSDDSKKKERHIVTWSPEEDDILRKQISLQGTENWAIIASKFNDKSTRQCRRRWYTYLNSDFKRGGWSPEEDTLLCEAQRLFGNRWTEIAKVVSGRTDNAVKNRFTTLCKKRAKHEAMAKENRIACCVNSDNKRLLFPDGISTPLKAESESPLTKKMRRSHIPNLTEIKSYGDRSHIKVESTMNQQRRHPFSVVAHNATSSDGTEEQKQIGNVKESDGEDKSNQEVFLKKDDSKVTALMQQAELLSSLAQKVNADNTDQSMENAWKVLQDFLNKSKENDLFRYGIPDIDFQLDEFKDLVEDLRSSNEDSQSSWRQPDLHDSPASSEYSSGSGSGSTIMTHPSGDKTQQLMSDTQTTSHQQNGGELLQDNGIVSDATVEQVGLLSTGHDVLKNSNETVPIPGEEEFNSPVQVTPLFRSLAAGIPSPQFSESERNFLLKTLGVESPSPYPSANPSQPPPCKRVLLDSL
The description is as above.

B1: Probe-863 (dsDNA)
DNA 1: AAGATATTAGTTTTTAATTTAGTAATATACCCATATGTTTAATATTGATATCGATATTG
DNA 2: CAATATCGATATCAATATTAAACATATGGGTATATTACTAAATTAAAAACTAATATCTT
As for B1, the binding result in data set [1] is “no binding”.

B2: Probe-1086 (neighbour element -1080 replaced with A) (dsDNA)
DNA 1: CTTCTAGGAAAAAACAATTCTTGATACGGTAAAAAAAAGATCTTGATAACATTGTGACT
DNA 2: AGTCACAATGTTATCAAGATCTTTTTTTTACCGTATCAAGAATTGTTTTTTCCTAGAAG
As for B2, in data set [1], the binding result is reported as “binds”.

B3: Probe-1007 (dsDNA)
DNA 1: CATAAGGTATTCTTTTACACTAATACTTTCCCGACAACAACAACGAAAAACTCCAACCT
DNA 2: AGGTTGGAGTTTTTCGTTGTTGTTGTCGGGAAAGTATTAGTGTAAAAGAATACCTTATG
Turning to B3, in data set [1], the binding result is on record as “no binding”.

B4: Probe-902 (dsDNA)
DNA 1: TATTTAACTATTGCTTTTTTGATTATTAGCCGGGGTACCAAGATATTAGTTTTTAATTT
DNA 2: AAATTAAAAACTAATATCTTGGTACCCCGGCTAATAATCAAAAAAGCAATAGTTAAATA
Consider B4, for which the binding result in data set [2] and in data set [1] was “binds” in each case.

B5: Probe-473 (dsDNA)
DNA 1: TTATGTGTATGTTGTTATCTACAATATGTCCGTTTCAATCAGTCGAACAAAAAATACTA
DNA 2: TAGTATTTTTTGTTCGACTGATTGAAACGGACATATTGTAGATAACAACATACACATAA
B5: the binding result in data set [1] is listed as “no binding”.

B6: Probe-1392 (neighbour element -1386 replaced with A) (dsDNA)
DNA 1: AATGTGTAATTGTCAAGAGGGATAAACCGAAAAAAATGAATCGAAGAAGCAATTGCTTT
DNA 2: AAAGCAATTGCTTCTTCGATTCATTTTTTTCGGTTTATCCCTCTTGACAATTACACATT
For the molecule B6, the binding result in data set [2] and in data set [1] was “binds” each time.

B7: Probe-1080 (neighbour element -1086 replaced with A) (dsDNA)
DNA 1: CTTCTAGGAAAAAACAATTCTTGAAAAAATCGCGGAAAGATCTTGATAACATTGTGACT
DNA 2: AGTCACAATGTTATCAAGATCTTTCCGCGATTTTTTCAAGAATTGTTTTTTCCTAGAAG
Take B7: the binding result in data set [1] was “binds”.

B8: Probe-1386 (neighbour element -1392 replaced with A) (dsDNA)
DNA 1: AATGTGTAATTGTCAAGAGGGATAAAAAAACGCGGATGAATCGAAGAAGCAATTGCTTT
DNA 2: AAAGCAATTGCTTCTTCGATTCATCCGCGTTTTTTTATCCCTCTTGACAATTACACATT
Take B8: the binding result in data set [2] and in data set [1] was “binds” in each case.
